# From patent US20260055182A1 (CIS BIOPHARMA, published 2026)
# Residue numbers refer to the chain shown, from its start. In names and notes the source's numbering stands.
# B1: CE7-variant18 (antibody)
# heavy: QVQLQQWGAGLLKPSETLSLTCAAYGYTFTGYWMHWIRQPPGKGLEWIGEINPSNGRTNYNERLKSRVTLSVDKSKNQASLKLSSVTAADTAVYFCARDYYGTSYNFDYWGQGTLVTVSSASTKGPSVFPLAPSSKSTSGGTAALGCLVKDYFPEPVTVSWNSGALTSGVHTFPAVLQSSGLYSLSSVVTVPSSSLGTQTYICNVNHKPSNTKVDKKVEPKSCDKTHTCPPCPAPEAAGGPSVFLFPPKPKDTLMISRTPEVTCVVVDVSHEDPEVKFNWYVDGVEVHNAKTKPREEQYNSTYRVVSVLTVLHQDWLNGKEYKCKVSNKALPASIEKTISKAKGQPREPQVYTLPPSREEMTKNQVSLTCLVKGFYPSDIAVEWESNGQPENNYKTTPPVLDSDGSFFLYSKLTVDKSRWQQGNVFSCSVMHEALHNHYTQKSLSLSPGK
# light: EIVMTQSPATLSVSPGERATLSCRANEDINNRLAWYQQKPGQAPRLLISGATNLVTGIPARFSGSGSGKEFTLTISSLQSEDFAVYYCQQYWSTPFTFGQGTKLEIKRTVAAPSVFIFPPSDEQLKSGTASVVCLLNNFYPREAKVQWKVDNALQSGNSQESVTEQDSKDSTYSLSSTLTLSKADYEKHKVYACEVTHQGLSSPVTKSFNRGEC
# notes: Human IgG1 kappa, L234A L235A P331S; also called CE7-434-VHA-315-VLB; humanized variant 18
# B2: CE7-variant17 (antibody, V domains shown)
# VH: QVQLQQWGAGLLKPSETLSLTCAAYGYTFTGYWMHWIRQPPGKGLEWIGEINPSNGRTNYNERLKSRVTLSVDKSKNQASLKLSSVTAADTAVYFCARDYYGTSYNFDYWGQGTLVTVSS
# VL: EIVMTQSPATLSVSPGERATLSCKANEDINNRLAWYQQKPGQAPRLLISGATNLVTGIPARFSGSGSGKEYTLTISSLQSEDFAVYYCQQYWSTPFTFGQGTKLEIKR
# notes: Human IgG1 kappa, L234A L235A P331S; also called CE7-434-VHA-315-VLA; humanized variant 17
# B3: CE7-variant1 (antibody, V domains shown)
# VH: QVQLVQSGAEVKKPGASVKVSCKASGYTFTGYWMHWVRQAPGQGLEWIGEINPSNGRTNYNERFKSRVTLTVDKSISTAYMELSRLRSDDTAVYFCARDYYGTSYNFDYWGQGTLVTVSS
# VL: DIQMTQSPSSLSASVGDRVTITCKANEDINNRLAWYQQKPGKAPKLLISGATNLVTGVPSRFSGSGSGKDYTLTISSLQPEDFATYYCQQYWSTPFTFGQGTKLEIKR
# notes: Human IgG1 kappa, L234A L235A P331S; also called CE7-12-VHA-1NL1-VLA; humanized variant 1
# B4: CE7-variant13 (antibody, V domains shown)
# VH: B2 VH
# VL: B3 VL
# notes: Human IgG1 kappa, L234A L235A P331S; also called CE7-434-VHA-1NL1-VLA; humanized variant 13
# B5: CE7-variant5 (antibody, V domains shown)
# VH: B3 VH
# VL: B2 VL
# notes: Human IgG1 kappa, L234A L235A P331S; also called CE7-12-VHA-315-VLA; humanized variant 5
# B6: CE7-variant16 (antibody, V domains shown)
# VH: B2 VH
# VL: B3 VL with K24Q, L73F, F83I
# notes: Human IgG1 kappa, L234A L235A P331S; also called CE7-434-VHA-133-VLB; humanized variant 16
# B7: CE7-variant14 (antibody, V domains shown)
# VH: B2 VH
# VL: B3 VL with K24R
# notes: Human IgG1 kappa, L234A L235A P331S; also called CE7-434-VHA-1NL1-VLB; humanized variant 14
# B8: CE7-variant19 (antibody, V domains shown)
# VH: B3 VH with K65Q, S66G, F95Y
# VL: B3 VL with K24R, T52S, T56S
# notes: CE7-1-2-VHB + CE7-1-NL1-VLC; human IgG1 kappa, L234A L235A P331S N297A (aglycosylated); also called humanized variant 19
# B9: CE7-variant15 (antibody, V domains shown)
# VH: B2 VH
# VL: B3 VL with F83I
# notes: Human IgG1 kappa, L234A L235A P331S; also called CE7-434-VHA-133-VLA; humanized variant 15
# B10: CE7-variant22 (antibody, V domains shown)
# VH: B3 VH with R63K, K65Q, S66G, F95Y
# VL: B3 VL with K24R
# notes: CE7-1-2-VHC + CE7-1-NL1-VLB; human IgG1 kappa, L234A L235A P331S N297A (aglycosylated); also called humanized variant 22
# B11: CE7-variant20 (antibody, V domains shown)
# VH: B3 VH with K65Q, S66G, F95Y
# VL: B3 VL with K24R, N26S, E27Q, D28G, T52S, T56S
# notes: CE7-1-2-VHB + CE7-1-NL1-VLD; human IgG1 kappa, L234A L235A P331S N297A (aglycosylated); also called humanized variant 20
# B12: CE7-variant21 (antibody, V domains shown)
# VH: B3 VH with R63K, K65Q, S66G, F95Y
# VL: B3 VL
# notes: CE7-1-2-VHC + CE7-1-NL1-VLA; human IgG1 kappa, L234A L235A P331S N297A (aglycosylated); also called humanized variant 21
# B13: CE7-variant6 (antibody, V domains shown)
# VH: B3 VH
# VL: B2 VL with K24R, Y71F
# notes: Human IgG1 kappa, L234A L235A P331S; also called CE7-12-VHA-315-VLB; humanized variant 6
# B14: CE7-variant25 (antibody, V domains shown)
# VH: B3 VH with I48M, R63K, K65Q, S66G, F95Y
# VL: B3 VL
# notes: CE7-1-2-VHD + CE7-1-NL1-VLA; human IgG1 kappa, L234A L235A P331S N297A (aglycosylated); also called humanized variant 25
# B15: CE7-variant12 (antibody, V domains shown)
# VH: B3 VH with K65Q, S66G, F95Y
# VL: B2 VL with K24R, Y71F
# notes: Human IgG1 kappa, L234A L235A P331S; also called CE7-12-VHB-315-VLB; humanized variant 12
# B16: CE7-variant2 (antibody, V domains shown)
# VH: B3 VH
# VL: B3 VL with K24R
# notes: Human IgG1 kappa, L234A L235A P331S; also called CE7-12-VHA-1NL1-VLB; humanized variant 2
# B17: CE7-variant4 (antibody)
# heavy: QVQLVQSGAEVKKPGASVKVSCKASGYTFTGYWMHWVRQAPGQGLEWIGEINPSNGRTNYNERFKSRVTLTVDKSISTAYMELSRLRSDDTAVYFCARDYYGTSYNFDYWGQGTLVTVSSASTKGPSVFPLAPSSKSTSGGTAALGCLVKDYFPEPVTVSWNSGALTSGVHTFPAVLQSSGLYSLSSVVTVPSSSLGTQTYICNVNHKPSNTKVDKKVEPKSCDKTHTCPPCPAPEAAGGPSVFLFPPKPKDTLMISRTPEVTCVVVDVSHEDPEVKFNWYVDGVEVHNAKTKPREEQYNSTYRVVSVLTVLHQDWLNGKEYKCKVSNKALPASIEKTISKAKGQPREPQVYTLPPSREEMTKNQVSLTCLVKGFYPSDIAVEWESNGQPENNYKTTPPVLDSDGSFFLYSKLTVDKSRWQQGNVFSCSVMHEALHNHYTQKSLSLSPGK
# light: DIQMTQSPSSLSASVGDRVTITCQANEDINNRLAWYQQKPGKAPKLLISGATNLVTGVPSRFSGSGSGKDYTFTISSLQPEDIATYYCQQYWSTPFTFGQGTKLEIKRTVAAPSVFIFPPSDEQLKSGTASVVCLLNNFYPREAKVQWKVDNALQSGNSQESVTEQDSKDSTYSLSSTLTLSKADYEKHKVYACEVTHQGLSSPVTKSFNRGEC
# notes: Human IgG1 kappa, L234A L235A P331S; also called CE7-12-VHA-133-VLB; humanized variant 4
# B18: CE7-variant9 (antibody, V domains shown)
# VH: B3 VH with K65Q, S66G, F95Y
# VL: B3 VL with F83I
# notes: Human IgG1 kappa, L234A L235A P331S; also called CE7-12-VHB-133-VLA; humanized variant 9
# B19: CE7-variant24 (antibody, V domains shown)
# VH: B3 VH with R63K, K65Q, S66G, F95Y
# VL: B3 VL with K24R, N26S, E27Q, D28G, T52S, T56S
# notes: CE7-1-2-VHC + CE7-1-NL1-VLD; human IgG1 kappa, L234A L235A P331S N297A (aglycosylated); also called humanized variant 24
# B20: CE7-variant23 (antibody, V domains shown)
# VH: B3 VH with R63K, K65Q, S66G, F95Y
# VL: B3 VL with K24R, T52S, T56S
# notes: CE7-1-2-VHC + CE7-1-NL1-VLC; human IgG1 kappa, L234A L235A P331S N297A (aglycosylated); also called humanized variant 23
# B21: CE7-variant11 (antibody, V domains shown)
# VH: B3 VH with K65Q, S66G, F95Y
# VL: B2 VL
# notes: Human IgG1 kappa, L234A L235A P331S; also called CE7-12-VHB-315-VLA; humanized variant 11
# B22: CE7-variant8 (antibody, V domains shown)
# VH: B3 VH with K65Q, S66G, F95Y
# VL: B3 VL with K24R
# notes: Human IgG1 kappa, L234A L235A P331S; also called CE7-12-VHB-1NL1-VLB; humanized variant 8
# B23: CE7-variant10 (antibody, V domains shown)
# VH: B3 VH with K65Q, S66G, F95Y
# VL: B3 VL with K24Q, L73F, F83I
# notes: Human IgG1 kappa, L234A L235A P331S; also called CE7-12-VHB-133-VLB; humanized variant 10
# Biological target: T1, L1-CAM recombinant protein (His Tag), human (human, UniProt P32004 20-1120)
# T1 construct: Bought protein; also called CD171; human L1-CAM; not shown: His tag
# Test: ELISA, human L1-CAM coated at 2 µg/ml
# T1 sequence (P32004 20-1120 limits assumed): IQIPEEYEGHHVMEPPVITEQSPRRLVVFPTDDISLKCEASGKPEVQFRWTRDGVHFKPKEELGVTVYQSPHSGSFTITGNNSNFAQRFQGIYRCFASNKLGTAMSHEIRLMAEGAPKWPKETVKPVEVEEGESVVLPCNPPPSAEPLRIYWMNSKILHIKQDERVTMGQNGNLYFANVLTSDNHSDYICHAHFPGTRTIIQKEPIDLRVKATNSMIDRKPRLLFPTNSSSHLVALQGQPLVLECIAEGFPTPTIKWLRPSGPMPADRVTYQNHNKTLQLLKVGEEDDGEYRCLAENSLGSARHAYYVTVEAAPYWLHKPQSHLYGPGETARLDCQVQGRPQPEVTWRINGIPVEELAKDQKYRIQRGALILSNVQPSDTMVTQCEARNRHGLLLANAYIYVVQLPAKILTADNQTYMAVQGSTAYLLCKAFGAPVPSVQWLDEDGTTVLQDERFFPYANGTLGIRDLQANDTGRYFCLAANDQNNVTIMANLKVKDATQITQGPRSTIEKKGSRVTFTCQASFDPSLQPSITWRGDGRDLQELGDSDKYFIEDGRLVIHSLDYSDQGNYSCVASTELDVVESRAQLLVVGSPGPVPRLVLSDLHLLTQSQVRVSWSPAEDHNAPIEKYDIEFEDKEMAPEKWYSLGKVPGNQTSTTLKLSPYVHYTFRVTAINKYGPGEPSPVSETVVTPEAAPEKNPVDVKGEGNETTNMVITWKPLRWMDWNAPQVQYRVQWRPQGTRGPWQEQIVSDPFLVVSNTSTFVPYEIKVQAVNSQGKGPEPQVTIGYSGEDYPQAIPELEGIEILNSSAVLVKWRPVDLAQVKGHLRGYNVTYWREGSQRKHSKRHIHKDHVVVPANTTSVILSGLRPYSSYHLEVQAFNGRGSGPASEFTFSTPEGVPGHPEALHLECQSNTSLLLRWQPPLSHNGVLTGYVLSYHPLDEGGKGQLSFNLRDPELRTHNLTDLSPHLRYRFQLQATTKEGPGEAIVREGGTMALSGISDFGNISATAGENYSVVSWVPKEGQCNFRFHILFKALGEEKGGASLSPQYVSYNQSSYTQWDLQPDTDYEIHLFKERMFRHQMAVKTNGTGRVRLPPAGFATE
row,EC50 [µg/mL],Binder
1,0.00968,B1
2,0.0108,B2
3,0.0288,B3
4,0.05,B4
5,0.0282,B5
6,0.0132,B6
7,0.0157,B7
8,0.0335,B8
9,0.0112,B9
10,0.024,B10
11,0.0317,B11
12,0.0299,B12
13,0.0255,B13
14,0.0272,B14
15,0.0126,B15
16,0.0128,B16
17,0.012,B17
18,0.0197,B18
19,0.0396,B19
20,0.037,B20
21,0.0148,B21
22,0.0129,B22
23,0.0136,B23
